Measurements from CN112010973A (SHANDONG BOAN BIOTECHNOLOGY CO LTD, dated 2020).

Target: T1, 4-1BB蛋白(义翘神州，10041-H08H) (human, UniProt Q07011 24-186)
T1 construct: bought reagent; also called 4-1BB-His蛋白; 4-1BB protein
Assay: SPR, BIAcore X100; antibody captured by anti-human IgG Fc on CM5, 4-1BB protein as analyte, 1:1 model

Kd: 4.87 nM | koff: 0.00251 s⁻¹ | kon: 516000 M⁻¹ s⁻¹
B1: Urelumab (antibody, human IgG4 S228P, kappa, V domains shown)
VH: QVQLQQWGAGLLKPSETLSLTCAVYGGSFSGYYWSWIRQSPEKGLEWIGEINHGGYVTYNPSLESRVTISVDTSKNQFSLKLSSVTAADTAVYYCARDYGPGNYDWYFDLWGRGTLVTVSS
VL: EIVLTQSPATLSLSPGERATLSCRASQSVSSYLAWYQQKPGQAPRLLIYDASNRATGIPARFSGSGSGTDFTLTISSLEPEDFAVYYCQQRSNWPPALTFGGGTKVEIKR
notes: Second positive control antibody, expressed in HEK293 in the same way as Utomilumab
